From patent US20150315289A1 (published 2015)
Positions of bridges follow the written chain, without caps; N, C: chain ends. No end group written: not given here.

T1: cyclic phage-display peptide ACPEWWGTTC (disulfide 2-10)
T1 peptide: ACPEWWGTTC

T2: linear phage-display peptide WTWNITKAYPLP
T2 peptide: WTWNITKAYPLP

T3: linear phage-display peptide WTWNITKEYPQP
T3 peptide: WTWNITKEYPQP


Key:
[1] = molecular target: T1, cyclic phage-display peptide ACPEWWGTTC; experiment: phage-displayed peptide immunoreactivity, against the linear peptide
[2] = molecular target: T2, linear phage-display peptide …; experiment: phage-displayed peptide screen with hPAM4 and mPAM4
Text: (§1) The first was a linear peptide library consisting of 12 amino acid sequences and the second was a cyclic peptide consisting of 7 amino acid sequences cyclized by a disulfide bridge.

[3] = molecular target: T3, linear phage-display peptide …; experiment: degenerate phage library panned and screened as before (hPAM4 and mPAM4)
Text: as §1

[4] = molecular target: MUC17 (UniProt Q685J3 26-4493); experiment: immunofluorescence co-localisation on human carcinoma cell lines (data not shown)

| immunoreactivity relative to the linear sequence [1] [%] | Binder | binding result [2] | binding result [3] | binding result [4] |
| --- | --- | --- | --- | --- |
| ~10 | murine PAM4 (mPAM4) (antibody, V domains shown, also called MAb PAM4; mAb-PAM4) VH: EVQLQESGPELVKPGASVKMSCKASGYTFPSYVLHWVKQKPGQGLEWIGYINPYNDGTQYNEKFKGKATLTSDKSSSTAYMELSRLTSEDSAVYYCARGFGGSYGFAYWGQGTLITVSA VL: DIVMTQSPAIMSASPGEKVTMTCSASSSVSSSYLYWYQQKPGSSPKLWIYSTSNLASGVPARFSGSGSGTSYSLTISSMEAEDAASYFCHQWNRYPYTFGGGTKLEIK | binds | binds |  |
|  | humanized PAM4 (hPAM4) IgG (antibody, V domains shown, humanized IgG1 kappa; used HRP-conjugated in some ELISAs and blots; also called clivatuzumab; HRP-hPAM4) VH: QVQLQQSGAEVKKPGASVKVSCEASGYTFPSYVLHWVKQAPGQGLEWIGYINPYNDGTQYNEKFKGKATLTRDTSINTAYMELSRLRSDDTAVYYCARGFGGSYGFAYWGQGTLVTVSS VL: DIQLTQSPSSLSASVGDRVTMTCSASSSVSSSYLYWYQQKPGKAPKLWIYSTSNLASGVPARFSGSGSGTDFTLTISSLQPEDSASYFCHQWNRYPYTFGGGTRLEIKR | binds | binds | no binding |
